{"source": "patent US20160258855A1", "about": "“Methods and Apparatus to Determine Diffusion Properties of Porous Structures for Drug Delivery” (ForSight Vision4, Inc., priority 2010, published 2016)", "origin": "cited, not measured here", "key": {"[1]": {"settings": "rabbit eye, intravitreal, cited from earlier work"}, "[2]": {"settings": "human eye, intravitreal, cited from earlier work"}, "[3]": {"settings": "monkey eye, intravitreal, cited from earlier work"}}, "note": "Where two headings read alike, the source gives them in different places.", "data": [{"substance": "ranibizumab [Lucentis]", "values": [{"measurement": "half-life in vitreous", "setting": "[1]", "value": "two to four"}, {"measurement": "half-life in vitreous", "setting": "[1]; listed as ranibizumab", "value": "approximately 3 days"}, {"measurement": "half-life in vitreous", "setting": "[2]", "value": "about nine"}, {"measurement": "half-life in vitreous", "setting": "[2]; listed as ranibizumab", "value": "~220", "unit": "h"}, {"measurement": "half-life in vitreous", "setting": "[3]", "value": "two to four"}, {"measurement": "half-life in vitreous", "setting": "[3]; listed as ranibizumab", "value": "approximately 3 days"}]}]}
